Assay results from patent publication US20240123070A1 (published 2024).

T1: KRAS G13D (G13D-RT6) peptide on HLA-DQA1*05:01 / HLA-DQB1*03:01 (human)
T1 peptide: YKLVVVGAGDVGKSAL


Molecular target: T1, KRAS G13D (G13D-RT6) peptide on …
Assay: NFAT-luciferase; Jurkat-NFAT-Luc with the TCR and Lovo-DPA0301:DPB0501 cells loaded with G13D-RT6; against wild-type B8.2.4 TCR; full-length, on cells
Description: The TCR mutant (having a mutation present in CDR3 region) lentiviral vector was transduced into Jurkat-NFAT-Luc cell line, […] (G13D-RT6, SEQ ID NO: 20) were used as antigen-presenting cells (referred to as APCs), 2×10⁴ of the TCR-T and 2×10⁴ of the antigen-loaded APCs were co-cultured for 16-24 hours, added with ONE Glo Luciferase to detect the fluorescent signal expression, then TCR Mut RLU/WT RLU (ratio of RLU signal value of TCR mutant to RLU signal value of wild-type B8.2.4TCR) was calculated, and the results were shown in Table 9.

Binder | TCR Mut RLU/WT RLU [ratio]
B8.2.4 TCR mutant α97R-A (TCR, V domains shown) Valpha: AQKITQTQPGMFVQEKEAVTLDCTYDTSDPSYGLFWYKQPSSGEMIFLIYQGSYDQQNATEGRYSLNFQKARKSANLVISASQLGDSAMYFCAMREATGTASKLTFGTGTRLQVTL Vbeta: DVKVTQSSRYLVKRTGEKVFLECVQDMDHENMFWYRQDPGLGLRLIYFSYDVKMKEKGDIPEGYSVSREKKERFSLILESASTNQTSMYLCASSQTVPPQHFGDGTRLSIL | 0.13
B8.2.4 TCR mutant α97R-S (TCR, V domains shown) Valpha: AQKITQTQPGMFVQEKEAVTLDCTYDTSDPSYGLFWYKQPSSGEMIFLIYQGSYDQQNATEGRYSLNFQKARKSANLVISASQLGDSAMYFCAMRESTGTASKLTFGTGTRLQVTL Vbeta: DVKVTQSSRYLVKRTGEKVFLECVQDMDHENMFWYRQDPGLGLRLIYFSYDVKMKEKGDIPEGYSVSREKKERFSLILESASTNQTSMYLCASSQTVPPQHFGDGTRLSIL | 0.22
B8.2.4 TCR mutant α97R-M (TCR, V domains shown) Valpha: AQKITQTQPGMFVQEKEAVTLDCTYDTSDPSYGLFWYKQPSSGEMIFLIYQGSYDQQNATEGRYSLNFQKARKSANLVISASQLGDSAMYFCAMREMTGTASKLTFGTGTRLQVTL Vbeta: DVKVTQSSRYLVKRTGEKVFLECVQDMDHENMFWYRQDPGLGLRLIYFSYDVKMKEKGDIPEGYSVSREKKERFSLILESASTNQTSMYLCASSQTVPPQHFGDGTRLSIL | 0.17
B8.2.4 TCR mutant α97R-K (TCR, V domains shown) Valpha: AQKITQTQPGMFVQEKEAVTLDCTYDTSDPSYGLFWYKQPSSGEMIFLIYQGSYDQQNATEGRYSLNFQKARKSANLVISASQLGDSAMYFCAMREKTGTASKLTFGTGTRLQVTL Vbeta: DVKVTQSSRYLVKRTGEKVFLECVQDMDHENMFWYRQDPGLGLRLIYFSYDVKMKEKGDIPEGYSVSREKKERFSLILESASTNQTSMYLCASSQTVPPQHFGDGTRLSIL | 0.24
B8.2.4 TCR mutant α97R-H (TCR, V domains shown) Valpha: AQKITQTQPGMFVQEKEAVTLDCTYDTSDPSYGLFWYKQPSSGEMIFLIYQGSYDQQNATEGRYSLNFQKARKSANLVISASQLGDSAMYFCAMREHTGTASKLTFGTGTRLQVTL Vbeta: DVKVTQSSRYLVKRTGEKVFLECVQDMDHENMFWYRQDPGLGLRLIYFSYDVKMKEKGDIPEGYSVSREKKERFSLILESASTNQTSMYLCASSQTVPPQHFGDGTRLSIL | 0.13
B8.2.4 TCR mutant α97R-C (TCR, V domains shown) Valpha: AQKITQTQPGMFVQEKEAVTLDCTYDTSDPSYGLFWYKQPSSGEMIFLIYQGSYDQQNATEGRYSLNFQKARKSANLVISASQLGDSAMYFCAMRECTGTASKLTFGTGTRLQVTL Vbeta: DVKVTQSSRYLVKRTGEKVFLECVQDMDHENMFWYRQDPGLGLRLIYFSYDVKMKEKGDIPEGYSVSREKKERFSLILESASTNQTSMYLCASSQTVPPQHFGDGTRLSIL | 0.27
B8.2.4 TCR mutant α97R-Y (TCR, V domains shown) Valpha: AQKITQTQPGMFVQEKEAVTLDCTYDTSDPSYGLFWYKQPSSGEMIFLIYQGSYDQQNATEGRYSLNFQKARKSANLVISASQLGDSAMYFCAMREYTGTASKLTFGTGTRLQVTL Vbeta: DVKVTQSSRYLVKRTGEKVFLECVQDMDHENMFWYRQDPGLGLRLIYFSYDVKMKEKGDIPEGYSVSREKKERFSLILESASTNQTSMYLCASSQTVPPQHFGDGTRLSIL | 0.16
B8.2.4 TCR mutant α97R-T (TCR, V domains shown) Valpha: AQKITQTQPGMFVQEKEAVTLDCTYDTSDPSYGLFWYKQPSSGEMIFLIYQGSYDQQNATEGRYSLNFQKARKSANLVISASQLGDSAMYFCAMRETTGTASKLTFGTGTRLQVTL Vbeta: DVKVTQSSRYLVKRTGEKVFLECVQDMDHENMFWYRQDPGLGLRLIYFSYDVKMKEKGDIPEGYSVSREKKERFSLILESASTNQTSMYLCASSQTVPPQHFGDGTRLSIL | 0.23
B8.2.4 TCR mutant α97R-E (TCR, V domains shown) Valpha: AQKITQTQPGMFVQEKEAVTLDCTYDTSDPSYGLFWYKQPSSGEMIFLIYQGSYDQQNATEGRYSLNFQKARKSANLVISASQLGDSAMYFCAMREETGTASKLTFGTGTRLQVTL Vbeta: DVKVTQSSRYLVKRTGEKVFLECVQDMDHENMFWYRQDPGLGLRLIYFSYDVKMKEKGDIPEGYSVSREKKERFSLILESASTNQTSMYLCASSQTVPPQHFGDGTRLSIL | 0.16
B8.2.4 TCR mutant α97R-N (TCR, V domains shown) Valpha: AQKITQTQPGMFVQEKEAVTLDCTYDTSDPSYGLFWYKQPSSGEMIFLIYQGSYDQQNATEGRYSLNFQKARKSANLVISASQLGDSAMYFCAMRENTGTASKLTFGTGTRLQVTL Vbeta: DVKVTQSSRYLVKRTGEKVFLECVQDMDHENMFWYRQDPGLGLRLIYFSYDVKMKEKGDIPEGYSVSREKKERFSLILESASTNQTSMYLCASSQTVPPQHFGDGTRLSIL | 0.16
B8.2.4 TCR mutant α97R-V (TCR, V domains shown) Valpha: AQKITQTQPGMFVQEKEAVTLDCTYDTSDPSYGLFWYKQPSSGEMIFLIYQGSYDQQNATEGRYSLNFQKARKSANLVISASQLGDSAMYFCAMREVTGTASKLTFGTGTRLQVTL Vbeta: DVKVTQSSRYLVKRTGEKVFLECVQDMDHENMFWYRQDPGLGLRLIYFSYDVKMKEKGDIPEGYSVSREKKERFSLILESASTNQTSMYLCASSQTVPPQHFGDGTRLSIL | 0.16
B8.2.4 TCR mutant α97R-Q (TCR, V domains shown) Valpha: AQKITQTQPGMFVQEKEAVTLDCTYDTSDPSYGLFWYKQPSSGEMIFLIYQGSYDQQNATEGRYSLNFQKARKSANLVISASQLGDSAMYFCAMREQTGTASKLTFGTGTRLQVTL Vbeta: DVKVTQSSRYLVKRTGEKVFLECVQDMDHENMFWYRQDPGLGLRLIYFSYDVKMKEKGDIPEGYSVSREKKERFSLILESASTNQTSMYLCASSQTVPPQHFGDGTRLSIL | 0.16
B8.2.4 TCR mutant α97R-W (TCR, V domains shown) Valpha: AQKITQTQPGMFVQEKEAVTLDCTYDTSDPSYGLFWYKQPSSGEMIFLIYQGSYDQQNATEGRYSLNFQKARKSANLVISASQLGDSAMYFCAMREWTGTASKLTFGTGTRLQVTL Vbeta: DVKVTQSSRYLVKRTGEKVFLECVQDMDHENMFWYRQDPGLGLRLIYFSYDVKMKEKGDIPEGYSVSREKKERFSLILESASTNQTSMYLCASSQTVPPQHFGDGTRLSIL | 0.18
B8.2.4 TCR mutant α97R-I (TCR, V domains shown) Valpha: AQKITQTQPGMFVQEKEAVTLDCTYDTSDPSYGLFWYKQPSSGEMIFLIYQGSYDQQNATEGRYSLNFQKARKSANLVISASQLGDSAMYFCAMREITGTASKLTFGTGTRLQVTL Vbeta: DVKVTQSSRYLVKRTGEKVFLECVQDMDHENMFWYRQDPGLGLRLIYFSYDVKMKEKGDIPEGYSVSREKKERFSLILESASTNQTSMYLCASSQTVPPQHFGDGTRLSIL | 0.16
B8.2.4 TCR mutant α97R-D (TCR, V domains shown) Valpha: AQKITQTQPGMFVQEKEAVTLDCTYDTSDPSYGLFWYKQPSSGEMIFLIYQGSYDQQNATEGRYSLNFQKARKSANLVISASQLGDSAMYFCAMREDTGTASKLTFGTGTRLQVTL Vbeta: DVKVTQSSRYLVKRTGEKVFLECVQDMDHENMFWYRQDPGLGLRLIYFSYDVKMKEKGDIPEGYSVSREKKERFSLILESASTNQTSMYLCASSQTVPPQHFGDGTRLSIL | 0.17
